Test results: a protein production outcome set (Wang et al. 2014)

Assay: label from the status in PepcDB records

Sequence	protein production
MKSQISWKVGGQQGEGIESTGEIFATAMNRKGYFLYGYRHFSSRIKGGHTNNKIRVSKSPVHAISDDLDILIAFDQETIELNHHEMREDSIIIADSKAKPQKPENCVAQLIELPFTSTAKELGTALMKNMVAIGATSALMDLNTSTFETLIDNMFSKKGNKVVDMNIQALNMGYDLMKQQVTNVNGDFTLENGSGHPHLYMIGNDAIGLGAIAAGSRFMSAYPITPASEIMEYMIANLPKVDGTVVQTEDEIAAATMAIGANYAGVRGFTASAGPGLSLMMESIGLSGMTETPLVIINTQRGGPSTGLPTKQEQSDLMQMIYGTHGDIPKIVVAPTDAEDAFYLTMEAFNLAEEYQCPVILLSDLQLSLGKQTVKTLDYNKIDIRRGEIIQSDIERAEDDKAYFKRYALTASGVSPRPIPGVKGGIHHVTGVEHNEEGKPSEAPMNRQNQMEKRMRKTESLVINNPVLLNEHEDEADILYIGFISTKGAIGEGAERLERHGVKVNTMHIRQLHPFPKDIVQQAINKASKVIVAEHNYQGQLSSILKMNTQVNDKLVNQTKYDGKPFLPYEIEEKGLEIAKELKELV	failed
MNKPATIDFATATAIQIPAATAQAEALHDLVPGEARDSLLAVHDVLRRELPQGRLAIYEAGGGSCSVLPPELLSRSQVTVVDIDEDQVRNNTYADEAIRGDVQTYRFGGETFDLVICYNVIEHLPNVDAALLNFRDALKRGGMILIGAPNPRSLSGVVTKYSPHWFHVWFYRHIRGIRDAGLPGEPPFPTFFHPLVTLPRLEAFAAANGLDMTYRREVESPRYPEMRRRKPLFAALVDAGAAMLNAVLPRGTDVRRGDYHVILRKS	failed
MTSHKPYWPIGVFTSVDAGLGVHLEVAQDLKVPTVQVHAPHPHTRTREHAQAFRAKCDAAGIQVTVIFGGFDGESYADIPTTARTVGLVPLETRASRVAEMKEISDFASWVGCPAIGLHIGFVPESSSPDYSELVRVTQDLLTHAANHGQAVHLETGQESADHLLEFIEDVNRPNLGINFDPANMILYGTGNPIEALRKVARYVRSIHCKDALWAPVNERGKSWGQEVALGTGDVGMEAYLTTLWEIGYRGPLTIEREIPHDPVQQKKDLASALELLTGLRKKIANC	not failed
MSLGRKQQYGTLASIAAKLGISRTTVSNAYNRPEQLSAELRQRILDTAEDMGYLGPDPVARSLRTRRAGAIGVLLTEDLTYAFEDMASVDFLAGVAQAAGDTQLTLIPASPASSVDHVSAQQLVNNAAVDGVVIYSVAKGDPHIDAIRARGLPAVIADQPAREEGMPFIAPNNRKAIAPAAQALIDAGHRKIGILSIRLDRANNDGEVTRERLENAQYQVQRDRVRGAMEVFIEAGIDPGTVPIMECWINNRQHNFEVAKELLETHPDLTAVLCTVDALAFGVLEYLKSVGKSAPADLSLTGFDGTHMALARDLTTVIQPNKLKGFKAGETLLKMIDKEYVEPEVELETSFHPGSTVAEGHHHHHH	not failed
MFIGGAIISFLFLFGYMWKEAHSNRIRHVTLSFPHFPDNGPPLTIFFISDIHRRSVSCRMLETVKGKADLVVIGGDLAEKGVPAARVRENVRRLQTVAPVYFVWGNNDDEVDYDLQSLLEEERVYVLKNKAEVWEHGGVPIALIGVGDVSRKEADIARALEHVPPESFRILACHNPAIIARLEDEQHISLVLSGHTHGGQIRLFSFGLYEKGGLKWHGNTALFTSNGYGTTGVPLRLGAPAETHLIKIVPGKLATEKKCLSKTGKTMLEHHHHHH	failed
MRVDELRVDERIKSTLKERGIESFYPPQAEALKSGILEGKNALISIPTASGKTLIAEIAMVHRILTQGGKAVYIVPLKALAEEKFQEFQDWEKIGLRVAMATGDYDSKDEWLGKYDIIIATAEKFDSLLRHGSSWIKDVKILVADEIHLIGSRDRGATLEVILAHMLGKAQIIGLSATIGNPEELAEWLNAELIVSDWRPVKLRRGVFYQGFVTWEDGSIDRFSSWEELVYDAIRKKKGALIFVNMRRKAERVALELSKKVKSLLTKPEIRALNELADSLEENPTNEKLAKAIRGGVAFHHAGLGRDERVLVEENFRKGIIKAVVATPTLSAGINTPAFRVIIRDIWRYSDFGMERIPIIEVHQMLGRAGRPKYDEVGEGIIVSTSDDPREVMNHYIFGKPEKLFSQLSNESNLRSQVLALIATFGYSTVEEILKFISNTFYAYQRKDTYSLEEKIRNILYFLLENEFIEISLEDKIRPLSLGIRTAKLYIDPYTAKMFKDKMEEVVKDPNPIGIFHLISLTPDITPFNYSKREFERLEEEYYEFKDRLYFDDPYISGYDPYLERKFFRAFKTALVLLAWINEVPEGEIVEKYSVEPGDIYRIVETAEWLVYSLKEIAKVLGAYEIVDYLETLRVRVKYGIREELIPLMQLPLVGRRRARALYNSGFRSIEDISQARPEELLKIEGIGVKTVEAIFKFLGKNVKISEKPRKSTLDYFLKS	failed
MSTKGTILVTGGAGYIGSHTAVELLAHGYDVVIADNLVNSKREAIARIEKITGKTPAFHETDVSDERALARIFDAHPITAAIHFAALKAVGESVAKPIEYYRNNLDSLLSLLRVMRERAVKRIVFSSSATVYGVPERSPIDETFPLSATNPYGQTKLMAEQILRDVEAADPSWRVATLRYFNPVGAHESGLIGEDPAGIPNNLMPYVAQVAVGKLEKLRVFGSDYPTPDGTGVRDYIHVVDLARGHIAALDALERRDASLTVNLGTGRGYSVLEVVRAFEKASGRAVPYELVARRPGDVAECYANPAAAAETIGWKAERDLERMCADHWRWQENNPRGFV	not failed
MIIRIVQNIQRINKEGNAPLYISFYLGKEKVVIPCKLSVPTTKFDSKTGMLRGTNKEAKDINLIIERLKAKVNDILVKHRLKNLTLNKEAFMREYNNPSDFKSFHDFVASYMKTYSRRLEIGTFRHHKSCMRKFKEYCEGLQFHELTEDFLRDYLIYMKKTLCNADSTAQRNLSTIKIYVSAAIKKGYMENDPFKDFGVKRIKSNIDYLTEEELIKFISLYYDRRLPERLERTLGFFLFMCFTSLHISDARHVCLEQINNGILTYYRIKNRNCKPEAIKIPLSIPAFKIIEELQGKRKEGHLFTSLQCDQVVNRQIKEIASILEIKKKVSAKTGRHTFATIFLKKTKDVATLQKLLGHSNLKETMIYAHVLDESKQEGMQCFNSFAI	failed
NKIPTTMAFRTVTDVDNAVNGLYDLMSGSGYYGAAMFAYGDMKGDDMQSSEESGVCNTCYMFNHRPNSLNAGSLWGRPFYILREAWNILNAIAEGKIESGDEKKLNALKGETMAVIALCQFDLTRCFGYPYTKDKGASLGAPLIDHLVGTYENPPRSTVAQAYDFIIETLEEAVTLMSEEKNNGRMNKYAARALLARIYLYHDDNRKAFDLADQLIKDADTSGSYALYPHEKYVAAWSVEAKFGSESFFEIANSVDDTPGRDSWGYLLNWYGYQKGFVTQKYAEQMLADPGDVRGHLLEENKYAGKTVWWLYKLRGTDLKTAPLECNNVVLRLSEVYLIAAEAGCKLGGDAAVQGLGYLNEIVKRGNPDNEVTMADYTLDRVLDERSKELVGEGHRFFDLLRNGKTIVRKGGYHLPSVDEEVDWDFYKCVLPIPEDQFIFSPEMEQNPGYPKN	not failed
MNSGTLLGKASISFSRPVYIQSCASVVGPKEGDGPLKNCFDMICDDPMFGEKKWEAAESAMQKEAAVLAIGKAGLTPDDIRFVFAGDLLAQTIASSFGIAEMGIPFFGLYGACSTMGESLSLGAIAVSAGYGHHILCATSSHFATAEKEFRFPLGYGCQRPLSATWTVTGSAACILSPEAPHPSEIVGSSLLRSTLGSVAITGITTGKVIDFGFRDSLNMGGCMAPAACDTIYRNFEDFGRSVNDYDAVLTGDLGVVGRQILLDLLKEKNIDLSSVHQDCGLLIYDNQKQDTHSGGSGCGCAASVLAAYILPRVVSGFWKRVLFVPTGAMLSKVSFNEGESVAGIAHGVVIEHISKETEV	failed
MAGDVEGFCSSIHDTSVSAGFRALYEEGLLLDVTLVIEDHQFQAHKALLATQSDYFRIMFTADMRERDQDKIHLKGLTATGFSHVLQFMYYGTIELSMNTVHEILQAAMYVQLIEVVKFCCSFLLAKICLENCAEIMRLLDDFGVNIEGVREKLDAFLLDNFVPLMSRPDFLSYLSFEKLMSYLDNDHLSRFPEIELYEAVQSWLRHDRRRWRHTDTIIQNIRFCLMTPSSVFEKVGTFESDRQDSSI	failed
MELKQSLSTHLEAEKPLRRYGAVEETAWKTERLGRNQLDIISMAETTMMPEEIELEMAKIQRLREVLVRRESELRFMMDDIQLCKDIMDLKQELQNLVAIPEKEKTKLQKQREDELIQKIHKLVQKRDFLVDDAEVERLREQEEDKEMADFLRIKLKPLDKVTKSPASSRAEKKAEPPPSKPTVAKTGLALIKDCCGATQCNIM	failed
MKIIIIGCGKVGAYVAKQLLDSHHQVTIIERDQKRFEQVLQIFSQAEVLHGDGTSPILLEKCSVETANAVAYLTGKDEINLVGSTVAKFNYAVDRVVARVNNPKNEWLFNADMGVDSRVSQASLLASVIINEVNIESTATLLKLNDDENAIVEFVLSKGASVHGKTVKTINFPSDVVLISVHRQGQNIIPKGETVLLEGDHILAYTNSQNQEKLAQLFR	failed
TFDNLNSMNGKGSSTDGINYVFDSLMSSSLDEPGVMYPLLAKTATFDPEQTHFVIFELNPKARFSDGTPVTAQDVKFSFDTYQSKANPGLQMYISDLAKTEVLSKYRVKFSFKSQNNAEMPLILASLPIYSQKDWKNRDFTRVTLQPILGSGPYLIERIDPS	failed
MIDGQIRLGHSMPWGMVGGGQGSQIGYIHRSAALRDGSFQLVAGAFDLDPERGRQFGQRLGVSAQRCYPDYRAMFEAEARRPDGIRAVSIATPNNTHFDICRAALHAGLHVVCEKPLCFTTAEAEALQRLAGEQRKIVGVTYGYAGHQLIEHAREMIVRGDLGEIRIVQMQFSHGFHSEGVEAANPAARWRMDPTFAGPSYVLGDIGTHPLYLSEVMLPGLKIARLLCSRQSFVKTRAPLEDNAFTIMEYQGGAIGYAWSCAVNAGSMHGQKIRVIGSKASLEWWDEHPNQLRYEVQGQPAQVLDRGMGYLHPAALHDDRIGAGHPEGLFEAWSNLYYRFALAMDATDRDDAAALRGIRYPDIHAGVEGVRWVENCVRSADAGGVWVDYR	failed
MTIKIALLGFGTVAKGIPYLLKENQHKLLSLEGEDIVIDKVLVRDNESRQRFINQGFTYNFVTEINTILQDSQIDIVVELMGGIEPAKTYLSQALGFGKHIVTANKDLIALHGKELMDLADARGLALFYEGAVAGGIPILRTLSHSFASDKMTRLLGILNGTSNFMLTKMFEEGWSYEQALKKAQELGYAESDPTNDVEGIDTAYKATILSQFGFGMPIDFDDVNYKGISSIRSEDVEVAQEMGFAIKLVADLRETPTGISVDVSPTLISQKHPLAAVNHVMNAVFIESIGIGQSLFYGPGAGQNPTATSVLADIIDISRSIRSQIKIKPMNTYHCPCRLSMQSDIFNEYYLAISLRNAEDSDTLGRYFEQENIGLKNVIEKALGDKQQEIYVLTDEVSQEKITQFIEEFPESGVIQLINVFKVIGG	failed
MKTGNLNPAPQQVTAPQNKARMDWPDIAKGISILGVVLLHVSLAIPGGQDTMMSHLNALLDPLRMPLFFMVSGFFAVKVLNQSFGELFRGRLWFYLVPYLLWTPVNLYLHRLEGTVFTGRAPGTWEWYSGSMLSATNMYWFLYFLVIFNLFLWATRKLPAWAIVALVASLWLLMPAYSEIEILRKSIIYLPTFLIGAYFRPLISRFAEAATRPKAIVFAAVLYVSGLALGVISNGLRDSENHGASVLWLMNLRDTFAHALGGNLTGFDMDHLPGMIIRIVSLPAGIVLCVWLGRIKPVGEFLKLIGRHTLPIYIGHATGLSLIFGFGLRWNFMEIDNFSDSLWHHTNTWMVIAFACAMLGGYLTYLISRVPVLGWTLVPPKLPEPDKTPAKAQADSHVKAQSAKPMNASTSSKTYGI	failed
MPSLQDLYAAFRRIAPYTHRTPLLTSRLLDGLLGKRLLLKAEHLQKTGSFKARGALSKALALENPKGLLAVSSGNHAQGVAYAAQVLGVKALVVMPEDASPYKKACARAYGAEVVDRGVTAKNREEVARALQEETGYALIHPFDDPLVIAGQGTAGLELLAQAGRMGVFPGAVLAPVGGGGLLAGLATAVKALSPTTLVLGVEPEAADDAKRSLEAGRILRLEAPPRTRADGVRTLSLGERTFPILRERVDGILTVSEEALLEAERLLFTRTKQVVEPTGALPLAAVLEHGARLPQTLALLLSGGNRDFSP	not failed
